Experiments:
human EGFR on cells [1] = target: T1, human EGFR on cells (human, UniProt P00533 25-1210); assay: FACS, VHH-His on CHOK1-huEGFR cells
T1 construct: whole, on cells; the cell line is named under assay; also called CHO-S-EGFR; CHOK1-huEGFR

human cMet on cells [2] = target: T2, human cMet on cells (human, UniProt P08581 25-1390); assay: FACS, VHH-His on EBC-1 cells
T2 construct: whole, on cells; Cell lines: CHO-S-cMet, CHOK1-hucMet, EBC-1, MKN45, NCI-H1975; the cell line is named under assay; also called CHO-S-cMet; CHOK1-hucMet
T2 sequence (P08581 25-1390): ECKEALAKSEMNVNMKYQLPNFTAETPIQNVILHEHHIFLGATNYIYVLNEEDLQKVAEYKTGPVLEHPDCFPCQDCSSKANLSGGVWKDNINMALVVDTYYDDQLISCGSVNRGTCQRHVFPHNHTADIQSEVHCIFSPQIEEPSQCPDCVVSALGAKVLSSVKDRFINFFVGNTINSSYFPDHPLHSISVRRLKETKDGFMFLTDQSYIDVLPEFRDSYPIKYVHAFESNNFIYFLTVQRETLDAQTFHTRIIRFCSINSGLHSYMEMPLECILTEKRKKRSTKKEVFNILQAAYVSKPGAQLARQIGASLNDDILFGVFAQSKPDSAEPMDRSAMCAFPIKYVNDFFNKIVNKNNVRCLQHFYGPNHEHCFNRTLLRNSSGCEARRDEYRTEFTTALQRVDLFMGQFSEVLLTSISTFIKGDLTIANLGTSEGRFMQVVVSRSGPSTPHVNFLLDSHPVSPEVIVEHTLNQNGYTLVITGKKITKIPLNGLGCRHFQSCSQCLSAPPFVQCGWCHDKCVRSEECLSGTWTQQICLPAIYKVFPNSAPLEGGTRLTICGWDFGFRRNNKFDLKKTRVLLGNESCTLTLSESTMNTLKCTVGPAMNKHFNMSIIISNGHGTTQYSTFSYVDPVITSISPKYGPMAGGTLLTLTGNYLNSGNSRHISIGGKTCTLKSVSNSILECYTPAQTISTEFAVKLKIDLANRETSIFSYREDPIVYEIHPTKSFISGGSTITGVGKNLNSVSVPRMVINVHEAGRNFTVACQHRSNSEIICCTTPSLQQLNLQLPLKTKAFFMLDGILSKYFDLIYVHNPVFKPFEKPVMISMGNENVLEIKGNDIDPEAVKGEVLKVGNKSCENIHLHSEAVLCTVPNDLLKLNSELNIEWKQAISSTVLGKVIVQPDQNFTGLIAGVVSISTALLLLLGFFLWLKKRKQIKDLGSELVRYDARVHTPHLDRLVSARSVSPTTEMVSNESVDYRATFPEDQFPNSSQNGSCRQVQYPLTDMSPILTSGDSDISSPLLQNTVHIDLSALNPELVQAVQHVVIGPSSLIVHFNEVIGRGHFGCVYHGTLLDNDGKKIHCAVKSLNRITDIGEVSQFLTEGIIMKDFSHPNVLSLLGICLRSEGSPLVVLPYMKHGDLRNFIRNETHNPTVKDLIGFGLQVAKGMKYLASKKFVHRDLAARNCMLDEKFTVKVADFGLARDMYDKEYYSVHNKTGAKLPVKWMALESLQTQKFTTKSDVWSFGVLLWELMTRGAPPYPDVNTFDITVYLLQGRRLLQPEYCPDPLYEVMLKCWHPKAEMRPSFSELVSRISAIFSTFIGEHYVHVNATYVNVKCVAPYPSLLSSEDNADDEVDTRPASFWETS

human cMet on cells [3] = target: T2, human cMet on cells; assay: FACS, VHH-His on MKN45 cells
human EGFR on cells [4] = target: T1, human EGFR on cells; assay: FACS, VHH-His on MDA-MB-468 cells

Maximum MFI value (human EGFR on cells [1]) [MFI]	EC50 (human cMet on cells [3]) [nM]	Maximum MFI value (human cMet on cells [3]) [MFI]	Binder	further results
3570			pzn10A1_m6m5 (VHH, not shown: small tags and cut ends) VHH: QVQLVESGGGLVQPGGSLRLSCAASGRTGSLHAMGWFRQAPGKERERVATLNLSDVSAVTADSVKGRFTISTDNSKNSVYLQMNSLRAEDTAVYYCTASRSPSGIRYYKPDYWGQGTLVTVSS	
4770			ppzn10A1_m6m5.m3 (VHH, not shown: small tags and cut ends) VHH: QVQLVESGGGLVQPGGSLRLSCAASGRTGSLHAMGWFRQAPGKERERVATLQLSDVSAVTADSVKGRFTISTDNSKNSVYLQMNSLRAEDTAVYYCTASRSPSGIRYYKPDYWGQGTLVTVSS	
2470			ppzn10A1_m6m5.m1 (VHH, not shown: small tags and cut ends) VHH: QVQLVESGGGLVQPGGSLRLSCAASGRTGSLHAMGWFRQAPGKERERVATLRLSDVSAVTADSVKGRFTISTDNSKNSVYLQMNSLRAEDTAVYYCTASRSPSGIRYYKPDYWGQGTLVTVSS	
			VHH10 (VHH, not shown: small tags and cut ends, Humanized 9A2 anti-cMet VHH-His; also called hu9A2) VHH: QSQLVESGGGLVKPGGSLRLSCVASGFTISRSIMSWYRQAPGKERDWVASIGSAGNTNYVDSVKGRFTISRDNAKNSLYLQMNSLRAEDTAVYYCKTTLAVSFSEYWGQGTLVTVSS	EC50 (human cMet on cells [2]): 1.63 nM; Maximum MFI value (human cMet on cells [2]): 233000 MFI
			VHH8 (VHH, not shown: small tags and cut ends, Humanized 9A2 anti-cMet VHH-His) VHH: ESQLLESGGGLVQPGGSLRLSCVASGFTISRSIMSWYRQAPGKERDWVASIGSAGNTNYVDSVKGRFTISRDNSKNTVYLQMNSLRAEDTAVYYCKTTLAVSFSEYWGQGTLVTVSS	EC50 (human cMet on cells [2]): 2.5 nM; Maximum MFI value (human cMet on cells [2]): 143000 MFI
	5.1	40400	pn7A12.N32X.m1 (VHH, not shown: small tags and cut ends, PTM-removal anti-cMet VHH-His) VHH: EVQLVESGGGLVQAGGSLRLSCVASGNIFSSYHMGWFRQAPGKQREFIAYITTREITNYADSVKGRFTISRDNTKNTVYLQMNVLKPEDTAVYYCIADQSREIRRSWGQGTQVTVSS	
	4.96	38000	pn7A12.N32X.m4 (VHH, not shown: small tags and cut ends, PTM-removal anti-cMet VHH-His) VHH: EVQLVESGGGLVQAGGSLRLSCVASGNIFSSFHMGWFRQAPGKQREFIAYITTREITNYADSVKGRFTISRDNTKNTVYLQMNVLKPEDTAVYYCIADQSREIRRSWGQGTQVTVSS	
	4.45	44700	pn7A12.N32X.m6 (VHH, not shown: small tags and cut ends, PTM-removal anti-cMet VHH-His) VHH: EVQLVESGGGLVQAGGSLRLSCVASGNIFSSDHMGWFRQAPGKQREFIAYITTREITNYADSVKGRFTISRDNTKNTVYLQMNVLKPEDTAVYYCIADQSREIRRSWGQGTQVTVSS	
	4.16	49600	pn7A12.N32X.m3 (VHH, not shown: small tags and cut ends, PTM-removal anti-cMet VHH-His) VHH: EVQLVESGGGLVQAGGSLRLSCVASGNIFSSHHMGWFRQAPGKQREFIAYITTREITNYADSVKGRFTISRDNTKNTVYLQMNVLKPEDTAVYYCIADQSREIRRSWGQGTQVTVSS	
84300			zn9B8.m2 (VHH, not shown: small tags and cut ends, Humanized anti-EGFR VHH-His) VHH: EVQLLESGGGLVQPGGSLRLSCAASGLTFSYYAMAWFRQAPGKEREFVAAINWNGGNTYNTDSVKGRFTISRDNSKNTVYLQMNSLTPEDTAVYYCAVRYNSASYLVARSSDYNYWGQGTLVTVSS	EC50 (human EGFR on cells [4]): 2.49 nM; Maximum MFI value (human EGFR on cells [4]): 95800 MFI; EC50 (human EGFR on cells [1]): 3.94 nM
85700			pzn9B8.m2.m12 (VHH, not shown: small tags and cut ends, Humanized + PTM-removal anti-EGFR VHH-His) VHH: EVQLLESGGGLVQPGGSLRLSCAASGLTFSYYAMAWFRQAPGKEREFVAAINWNAGNTYNTDSVKGRFTISRDNSKNTVYLQMNSLTPEDTAVYYCAVRYNAASYLVARSSDYNYWGQGTLVTVSS	EC50 (human EGFR on cells [1]): 4.96 nM
80100			pzn9B8.m2.m11 (VHH, not shown: small tags and cut ends, Humanized + PTM-removal anti-EGFR VHH-His; also called hu9B8) VHH: EVQLLESGGGLVQPGGSLRLSCAASGLTFSYYAMAWFRQAPGKEREFVAAINWNQGNTYNTDSVKGRFTISRDNSKNTVYLQMNSLTPEDTAVYYCAVRYNQASYLVARSSDYNYWGQGTLVTVSS	EC50 (human EGFR on cells [1]): 3.39 nM

Source: patent publication EP4814014A1, “BINDING MOLECULE AND ANTIBODY-DRUG CONJUGATE AND USE THEREOF” (priority 2023, dated 2025)
